Reference: publication PMC10943247
Blank lines part the entries; values can stand above or below the substance they belong to.

What was measured:
Assay in all cases: mass photometry; (N8-)CRL2^FEM1B wild type or mutant alone; 2 µL of 10 nM protein added to 18 μL of 50 mM HEPES pH 7.5, 150 mM NaCl
[1] = molecular target: CRL2^FEM1B complex with FEM1B^F549T, unneddylated (human) (UniProt Q13617)
[2] = molecular target: CRL2^FEM1B complex with FEM1B^F549R, unneddylated (human) (UniProt Q13617)
[3] = molecular target: CRL2^FEM1B complex with FEM1B^F549S, unneddylated (human) (UniProt Q13617)

stoichiometry N [1]: 2
Substance: CRL2^FEM1B complex with FEM1B^F549T, unneddylated (from UniProt Q13617 1-745; P62877 1-108; Q15370 1-104; Q15369 17-112; Q9UK73 1-627)

stoichiometry N [2]: 2
Substance: CRL2^FEM1B complex with FEM1B^F549R, unneddylated (from UniProt Q13617 1-745; P62877 1-108; Q15370 1-104; Q15369 17-112; Q9UK73 1-627)

stoichiometry N [3]: 2
Substance: CRL2^FEM1B complex with FEM1B^F549S, unneddylated (from UniProt Q13617 1-745; P62877 1-108; Q15370 1-104; Q15369 17-112; Q9UK73 1-627)
